Substitutions are numbered along the chain they refer to.
B1: mAb15 (antibody, V domains shown)
VH: QVQLKESGPGLVAPSQSLSITCTVSGFSLTGYGVTWVRQPPGKGLEWLGMIWGDGNTDYNSGLKSRLNISKDNSKSQVFLKMNSLQTDDTARYYCARSYYYGPPDYWGQGTTLTVSS
VL: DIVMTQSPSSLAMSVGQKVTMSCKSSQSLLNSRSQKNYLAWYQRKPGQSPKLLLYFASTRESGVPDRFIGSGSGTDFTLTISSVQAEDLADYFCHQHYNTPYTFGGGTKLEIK
notes: also called JTx mAb 15; TIM-3 mAb15
B2: mAb91 (antibody, V domains shown)
VH: DVQFQESGPGLVKPSQSLSLTCSVTGYSITSGYYWNWIRQFPGNKLEWMGYISYDGSNNYNPSLKNRISITRDTSKNQFFLKLNSVTTEDTATYYCGRDGPYYYGSSYGYFDVWGTGTTVTVSS
VL: DIVMTQAESSVPVTPGESVSISCRSSKSLLHSNGNTYLYWFLQRPGQSPQLLIHRMSNLASGVPDRFSGSGSGTAFTLRISRVEAEDMGVYYCMQHLEYPCTFGGGTKLEIK
notes: Mouse hybridoma antibody
B3: mAb48 (antibody, V domains shown)
VH: QIQLQQSGPELVTPGTSVKISCKASGYTFTDYYINWVKQRPGQGLEWIGWIYPGSGNTKYNEKFKGKATLTVDTSSSIAYMHLSSLTSEDSAVYFCAGDRFDYWGQGTTLTVSS
VL: QIVLTQSPAIMSASPGEKVTLTCSASSGVSSSYLYWYQQKPGSSPKLWIYSTSNLASGVPARFSGSGSGTSYSLTISNMETEDAASYFCHQWSNSPYTFGGGTKLEIK
notes: Mouse hybridoma antibody
B4: mAb22 (antibody, V domains shown)
VH: EVQLVESGGDLVKPGGSLKLSCAASGFTFSNHGMSWVRQTPDKRLEWVATISSGGSNTYFPDSVKGRFTISRDNVKNSLYLQMSSLKSEDTAMYYCARHGTSMIKEWFAYWGQGTLVTVSA
VL: DIVMTQSPVTLSVTPGDRVSLSCRASQSIGDYLHWYQQKSHESPRLLIKYASQSISGIPSRFSGSGSGSDFTLNINSVEPEDVGVYYCQHSHSFPPTFGGGTRLEIK
notes: Mouse hybridoma antibody
B5: mAb58 (antibody, V domains shown)
VH: QIQLVQSGPELKKPGETVKISCKASGYTFTTYGMSWVKQAPGKGLKLMGWINTYSGAPTYADDFKGRFAFSLETSASAAYLQINNLKNEDTATYFCARKPPHYYVNSFDYWGQGTTLTVSS
VL: B4 VL with V9A, G30S, N74S, H90N, S91G, P96Y, R103K

Experiments:
Test in all cases: ELISA, construct coated on plate
hTIM3-Fc murine DE loop = molecular target: T1, hTIM3-Fc murine DE loop (human, DE loop replaced by mouse TIM-3)
T1 construct: Whole construct: chimeric ECD, linker and human IgG1 Fc; also called hTIM3-Fc DE loop chimera

hTIM3-Fc WT = molecular target: T2, hTIM3-Fc WT (human)
T2 construct: also called hTIM-3-hFc

hTIM3-Fc murine BC loop = molecular target: T3, hTIM3-Fc murine BC loop (human, BC loop replaced by mouse TIM-3)
T3 construct: Whole construct: chimeric ECD, linker and human IgG1 Fc; also called hTIM3-Fc BC loop chimera

hTIM3-Fc murine CC′ loop = molecular target: T4, hTIM3-Fc murine CC′ loop (human, CC′ loop replaced by mouse TIM-3)
T4 construct: Whole construct: chimeric ECD, linker and human IgG1 Fc; also called hTIM3-Fc CC′ loop chimera

hTIM3-Fc murine FG loop = molecular target: T5, hTIM3-Fc murine FG loop (human, FG loop replaced by mouse TIM-3)
T5 construct: Whole construct: chimeric ECD, linker and human IgG1 Fc; also called hTIM3-Fc FG loop chimera

[1] = molecular target: T6, hTIM3-Fc murine C′C″ loop (human, C′C″ loop replaced by mouse TIM-3)
T6 construct: Whole construct: chimeric ECD, linker and human IgG1 Fc; also called hTIM3-Fc C′C″ loop chimera

Binder | Absorbance at 450 nm (hTIM3-Fc murine DE loop) [A450] | Absorbance at 450 nm (hTIM3-Fc WT) [A450] | Absorbance at 450 nm (hTIM3-Fc murine BC loop) [A450] | Absorbance at 450 nm (hTIM3-Fc murine CC′ loop) [A450] | Absorbance at 450 nm (hTIM3-Fc murine FG loop) [A450] | Absorbance at 450 nm [1] [A450]
B1 | 1.29 |  |  |  |  | 
B2 | 1.01 | 1.57 | 1.44 | 0.502 | 1.74 | 
B3 |  | 1.39 | 1.3 | 0.247 | 1.53 | 
B4 |  | 2.13 | 2.06 | 0.91 | 2.22 | 
B5 | 0.855 | 1.39 | 1.83 | 1.39 | 1.9 | 0.338
